No end group written: not given here.
Assays:
[1] = target: h-Tau 441 (human Tau isoform 2-441, Accession No. NP 005901.2) (human, UniProt P10636 2-758); experiment: SPR, BIAcore CM3 sensor chip, immobilized h-Tau 441
Protocol: The binding affinity (Kd) of the 10H8 and 19G10 mAbs was determined by BIAcore CM3 sensor chip (Biacore, Piscataway, N.J.) using immobilized h-Tau 441 as the capture protein.

[2] = target: T1, PPAPKTPPSSGEPPK (human); experiment: RepliTope peptide microarray, immobilized 15-mer, fluorescent secondary antibody
T1 construct: Synthetic peptide covalently immobilized on glass through a hydrophilic linker (RepliTope microarray)
T1 peptide: PPAPKTPPSSGEPPK
Text: (§1) Epitope mapping of clones 10H8 and 19G10 was completed using JPT Peptide Technologies' RepliTope™ peptide microarrays. This technology consists in using purified synthetic peptides chemoselectively and covalently immobilized to the glass surface. An optimized hydrophilic linker moiety is inserted between the glass surface and the antigen derived peptide sequence to avoid false negatives caused by sterical hindrance. The peptides used spanned Tau mid region protein sequence of 166 amino acids between amino acid 104 and amino acid 269 (Tau 166). Peptides of 15 amino acids in length that extended downstream either 1 or 2 amino acids at a time were used in this experiment.
(§2) The assay was performed using an automated TECAN HS4X00 microarray processing station. Microarrays were washed, incubated with blocking buffer for 60 min at 30° C., and subsequently with clones […] and 19G10 diluted in blocking buffer for 120 min at 30° C. Microarrays were washed and incubated with secondary antibody diluted in blocking buffer for 45 min at 30° C. and then dried. The quantification was performed using high resolution fluorescence scanner. The resulting images were analyzed and quantified using spot-recognition software GenePix (Molecular Devices). For each spot, the mean signal intensity was extracted and expressed as arbitraty florescence units.

[3] = target: T2, APKTPPSSGEPPKSG (human); experiment: as above
T2 construct: Synthetic peptide covalently immobilized on glass through a hydrophilic linker (RepliTope microarray)
T2 peptide: APKTPPSSGEPPKSG
Text: as §1, §2

[4] = target: T3, KTPPSSGEPPKSGDR (human); experiment: as above
T3 construct: Synthetic peptide covalently immobilized on glass through a hydrophilic linker (RepliTope microarray)
T3 peptide: KTPPSSGEPPKSGDR
Text: as §1, §2

[5] = target: T4, PPSSGEPPKSGDRSG (human); experiment: as above
T4 construct: Synthetic peptide covalently immobilized on glass through a hydrophilic linker (RepliTope microarray)
T4 peptide: PPSSGEPPKSGDRSG
Text: as §1, §2

[6] = target: T5, SSGEPPKSGDRSGYS (human, also: covalently immobilized on glass through a hydrophilic linker); experiment: as above
T5 construct: Synthetic peptide covalently immobilized on glass through a hydrophilic linker (RepliTope microarray)
T5 peptide: SSGEPPKSGDRSGYS
Text: as §1, §2

[7] = target: T6, GEPPKSGDRSGYSSP (human); experiment: as above
T6 construct: Synthetic peptide covalently immobilized on glass through a hydrophilic linker (RepliTope microarray)
T6 peptide: GEPPKSGDRSGYSSP
Text: as §1, §2

[8] = target: T7, PPKSGDRSGYSSPGS (human); experiment: as above
T7 construct: Synthetic peptide covalently immobilized on glass through a hydrophilic linker (RepliTope microarray)
T7 peptide: PPKSGDRSGYSSPGS
Text: as §1, §2

[9] = target: T8, KSGDRSGYSSPGSPG (human); experiment: as above
T8 construct: Synthetic peptide covalently immobilized on glass through a hydrophilic linker (RepliTope microarray)
T8 peptide: KSGDRSGYSSPGSPG
Text: as §1, §2

[10] = target: T9, GDRSGYSSPGSPGTP (human); experiment: as above
T9 construct: Synthetic peptide covalently immobilized on glass through a hydrophilic linker (RepliTope microarray)
T9 peptide: GDRSGYSSPGSPGTP
Text: as §1, §2

[11] = target: T10, SSGEPPKSGDRSGYS (human, also: covalently immobilized on glass through a hydrophilic linker); experiment: as above
T10 construct: Synthetic peptide covalently immobilized on glass through a hydrophilic linker (RepliTope microarray)
T10 peptide: SSGEPPKSGDRSGYS
Text: as §1, §2

[12] = target: T11, SGEPPKSGDRSGYSS (human, also: covalently immobilized on glass through a hydrophilic linker); experiment: as above
T11 construct: Synthetic peptide covalently immobilized on glass through a hydrophilic linker (RepliTope microarray)
T11 peptide: SGEPPKSGDRSGYSS
Text: as §1, §2

[13] = target: T12, GEPPKSGDRSGYSSP (human); experiment: as above
T12 construct: Synthetic peptide covalently immobilized on glass through a hydrophilic linker (RepliTope microarray)
T12 peptide: GEPPKSGDRSGYSSP
Text: as §1, §2

[14] = target: T13, EPPKSGDRSGYSSPG (human); experiment: as above
T13 construct: Synthetic peptide covalently immobilized on glass through a hydrophilic linker (RepliTope microarray)
T13 peptide: EPPKSGDRSGYSSPG
Text: as §1, §2

[15] = target: T14, PPKSGDRSGYSSPGS (human); experiment: as above
T14 construct: Synthetic peptide covalently immobilized on glass through a hydrophilic linker (RepliTope microarray)
T14 peptide: PPKSGDRSGYSSPGS
Text: as §1, §2

[16] = target: T15, PKSGDRSGYSSPGSP (human); experiment: as above
T15 construct: Synthetic peptide covalently immobilized on glass through a hydrophilic linker (RepliTope microarray)
T15 peptide: PKSGDRSGYSSPGSP
Text: as §1, §2

[17] = target: T16, KSGDRSGYSSPGSPG (human); experiment: as above
T16 construct: Synthetic peptide covalently immobilized on glass through a hydrophilic linker (RepliTope microarray)
T16 peptide: KSGDRSGYSSPGSPG
Text: as §1, §2

[18] = target: T17, SGDRSGYSSPGSPGT (human, also: covalently immobilized on glass through a hydrophilic linker); experiment: as above
T17 construct: Synthetic peptide covalently immobilized on glass through a hydrophilic linker (RepliTope microarray)
T17 peptide: SGDRSGYSSPGSPGT
Text: as §1, §2

Sequence of h-Tau 441 (human Tau isoform 2-441, Accession No. NP 005901.2) (P10636 other isoform, or with tags, fused parts or gaps limits assumed): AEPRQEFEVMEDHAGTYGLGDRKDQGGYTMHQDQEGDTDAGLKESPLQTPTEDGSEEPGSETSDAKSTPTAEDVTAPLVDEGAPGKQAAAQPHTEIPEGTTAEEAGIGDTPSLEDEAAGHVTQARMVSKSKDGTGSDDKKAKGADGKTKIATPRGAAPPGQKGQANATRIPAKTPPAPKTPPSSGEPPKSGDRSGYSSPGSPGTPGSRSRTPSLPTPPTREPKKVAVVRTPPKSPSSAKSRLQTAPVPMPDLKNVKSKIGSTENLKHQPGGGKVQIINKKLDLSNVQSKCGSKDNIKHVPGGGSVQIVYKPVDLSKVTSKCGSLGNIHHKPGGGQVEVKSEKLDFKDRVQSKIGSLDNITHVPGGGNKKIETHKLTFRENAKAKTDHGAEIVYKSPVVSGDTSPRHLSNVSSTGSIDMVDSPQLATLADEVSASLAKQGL

B1: monoclonal antibody 19G10 (antibody, mouse IgG2b, V domains shown)
VH: QVTLKESGPGILQPSQTLSLTCSFSGFSLSTSGMGVGWIRQPSGKGLEWLAHIWWDDDKYYNAVLKSRLTISKDTSKNQVFLKIASVDTADTATYYCARIGIDGPYAMDYWGQGTSVTVSS
VL: DIVMSQSPSSLAVSIGEKVTMSCKSSQSLLYSNNQKNYLAWYQRKPGQSPKLLIYWASTRESGVPDRFTGSGSGTDFTLTITSVKAEDLAVYYCQQYYSYPLWTFGGGTKLEIK
notes: also called mAb 19G10; 19G10 mAb
- Kd [1]: 6.3 nM
- koff [1]: 0.000176 s⁻¹
- kon [1]: 25900 M⁻¹ s⁻¹
- Fluorescent Intensity [2]: 892 arbitrary fluorescence units
- Fluorescent Intensity [3]: 761 arbitrary fluorescence units
- Fluorescent Intensity [4]: 55800 arbitrary fluorescence units
- Fluorescent Intensity [5]: 62000 arbitrary fluorescence units
- Fluorescent Intensity [6]: 62700 arbitrary fluorescence units
- Fluorescent Intensity [7]: 58000 arbitrary fluorescence units
- Fluorescent Intensity [8]: 53400 arbitrary fluorescence units
- Fluorescent Intensity [9]: 1810 arbitrary fluorescence units
- Fluorescent Intensity [10]: 588 arbitrary fluorescence units
- Fluorescent Intensity [11]: 55400 arbitrary fluorescence units
- Fluorescent Intensity [12]: 59700 arbitrary fluorescence units
- Fluorescent Intensity [13]: 58900 arbitrary fluorescence units
- Fluorescent Intensity [14]: 63100 arbitrary fluorescence units
- Fluorescent Intensity [15]: 58700 arbitrary fluorescence units
- Fluorescent Intensity [16]: 49600 arbitrary fluorescence units
- Fluorescent Intensity [17]: 1550 arbitrary fluorescence units
- Fluorescent Intensity [18]: 619 arbitrary fluorescence units

Reference: US20160356794A1 (Merck Sharp & Dohme, published 2016)
